# B1: Seq3-1 (ssDNA)
# DNA: TGCCGGTCGGGGGTTGGGGATCTCTCTTGGGGGAGGGTTATCATGGAGTTCGTGGTCAG
# B2: Seq3 (ssDNA)
# DNA: AGCGTCGGATACCACTACTATGCCGGTCGGGGGTTGGGGATCTCTCTTGGGGGAGGGTTATCATGGAGTTCGTGGTCAG
# B3: Seq3-3 (ssDNA)
# DNA: TGCCGGTCGGGGGTTGGGGATCTCTCTTGGGGGAGGGTT
# B4: Seq3-2 (ssDNA)
# DNA: AGCGTCGGATACCACTACTATGCCGGTCGGGGGTTGGGGATCTCTCTTGGGGGAGGGTT
# Target: Glutathione S-transferase (GST) (UniProt P08515 1-218)
# Experiment: bead fluorescence, confocal microscopy; 37 °C; BB: 20 mM HEPES pH 7.4, 120 mM NaCl, 5 mM KCl, 2 mM MgCl2; wash BB + 0.05% Tween 20; 37 °C, 40 min (section 2.1 gives another binding buffer: DPBS, 5 mM MgCl2)
# Settings: protein: recombinant, tags: biotinylated, on streptavidin agarose beads, chain copies: 2
# Glutathione S-transferase (GST), sequence (P08515 whole entry): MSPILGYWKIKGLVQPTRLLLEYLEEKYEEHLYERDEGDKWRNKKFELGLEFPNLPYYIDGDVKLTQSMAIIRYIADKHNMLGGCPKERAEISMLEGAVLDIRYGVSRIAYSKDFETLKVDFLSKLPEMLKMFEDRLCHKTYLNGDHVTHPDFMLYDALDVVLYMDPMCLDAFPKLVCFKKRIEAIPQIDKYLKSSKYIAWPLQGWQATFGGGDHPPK
Binder,Kd (label: FAM) [nM],"Kd (label: FAM (also called AF488), two small stem-loops with a large loop (Mfold)) [nM]"
B1,29.3 ± 4.8,–
B2,–,34 ± 5.6
B3,268 ± 89.4,–
B4,118 ± 21.7,–

# From PMC11505714, “A Double-Stranded Aptamer for Highly Sensitive Fluorescent Detection of Glutathione S-Transferases”
